Assay results as given in paper PMC12416549 (2024).

T1: TNFR1 (Homo sapiens, UniProt P19438)
T1 chain: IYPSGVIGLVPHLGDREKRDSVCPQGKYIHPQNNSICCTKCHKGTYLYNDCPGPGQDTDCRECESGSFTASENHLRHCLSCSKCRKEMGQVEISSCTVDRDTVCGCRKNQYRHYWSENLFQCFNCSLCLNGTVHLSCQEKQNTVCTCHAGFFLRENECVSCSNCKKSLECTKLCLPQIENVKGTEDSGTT


Molecular target: T1, TNFR1
Test: yeast display SC50

Row | apparent Kd (screen) | Binder
1 | 1.05 nM | E86V (designed binder) SMEEEVEKAAKEYEKKKKEAIEKHLEKLKAKDKEAAERFLKELEEAAKEYAKDEAKTMSEEEAKRRAKKYKEKVLLSELSEEEQKVIKEAEEKLVRTILKYVEEAAK
2 | 3 nM | I87Q (designed binder) SMEEEVEKAAKEYEKKKKEAIEKHLEKLKAKDKEAAERFLKELEEAAKEYAKDEAKTMSEEEAKRRAKKYKEKVLLSELSEEEQKEQKEAEEKLVRTILKYVEEAAK
3 | 1.69 nM | K100L (designed binder) SMEEEVEKAAKEYEKKKKEAIEKHLEKLKAKDKEAAERFLKELEEAAKEYAKDEAKTMSEEEAKRRAKKYKEKVLLSELSEEEQKEIKEAEEKLVRTILLYVEEAAK
4 | 0.49 nM | E81P (designed binder) SMEEEVEKAAKEYEKKKKEAIEKHLEKLKAKDKEAAERFLKELEEAAKEYAKDEAKTMSEEEAKRRAKKYKEKVLLSELSPEEQKEIKEAEEKLVRTILKYVEEAAK
5 | 1.27 nM | A90V (designed binder) SMEEEVEKAAKEYEKKKKEAIEKHLEKLKAKDKEAAERFLKELEEAAKEYAKDEAKTMSEEEAKRRAKKYKEKVLLSELSEEEQKEIKEVEEKLVRTILKYVEEAAK
6 | 12.5 nM | L79N (designed binder) SMEEEVEKAAKEYEKKKKEAIEKHLEKLKAKDKEAAERFLKELEEAAKEYAKDEAKTMSEEEAKRRAKKYKEKVLLSENSEEEQKEIKEAEEKLVRTILKYVEEAAK
7 | 0.593 nM | E82A (designed binder) SMEEEVEKAAKEYEKKKKEAIEKHLEKLKAKDKEAAERFLKELEEAAKEYAKDEAKTMSEEEAKRRAKKYKEKVLLSELSEAEQKEIKEAEEKLVRTILKYVEEAAK
8 | 0.956 nM | E86T (designed binder) SMEEEVEKAAKEYEKKKKEAIEKHLEKLKAKDKEAAERFLKELEEAAKEYAKDEAKTMSEEEAKRRAKKYKEKVLLSELSEEEQKTIKEAEEKLVRTILKYVEEAAK
9 | 2.73 nM | A105R (designed binder) SMEEEVEKAAKEYEKKKKEAIEKHLEKLKAKDKEAAERFLKELEEAAKEYAKDEAKTMSEEEAKRRAKKYKEKVLLSELSEEEQKEIKEAEEKLVRTILKYVEERAK
10 | 0.49 nM | V102P (designed binder) SMEEEVEKAAKEYEKKKKEAIEKHLEKLKAKDKEAAERFLKELEEAAKEYAKDEAKTMSEEEAKRRAKKYKEKVLLSELSEEEQKEIKEAEEKLVRTILKYPEEAAK
11 | 0.49 nM | L75M (designed binder) SMEEEVEKAAKEYEKKKKEAIEKHLEKLKAKDKEAAERFLKELEEAAKEYAKDEAKTMSEEEAKRRAKKYKEKVMLSELSEEEQKEIKEAEEKLVRTILKYVEEAAK
12 | 0.956 nM | S80H (designed binder) SMEEEVEKAAKEYEKKKKEAIEKHLEKLKAKDKEAAERFLKELEEAAKEYAKDEAKTMSEEEAKRRAKKYKEKVLLSELHEEEQKEIKEAEEKLVRTILKYVEEAAK
13 | 0.446 nM | Y101R (designed binder) SMEEEVEKAAKEYEKKKKEAIEKHLEKLKAKDKEAAERFLKELEEAAKEYAKDEAKTMSEEEAKRRAKKYKEKVLLSELSEEEQKEIKEAEEKLVRTILKRVEEAAK
14 | 1.4 nM | V102W (designed binder) SMEEEVEKAAKEYEKKKKEAIEKHLEKLKAKDKEAAERFLKELEEAAKEYAKDEAKTMSEEEAKRRAKKYKEKVLLSELSEEEQKEIKEAEEKLVRTILKYWEEAAK

The remaining lines, values behind:

Row | Binder | apparent Kd (screen)
15 | I21F (designed binder) SMEEEVEKAAKEYEKKKKEAFEKHLEKLKAKDKEAAERFLKELEEAAKEYAKDEAKTMSEEEAKRRAKKYKEKVLLSELSEEEQKEIKEAEEKLVRTILKYVEEAAK | 0.49 nM
16 | S1D (designed binder) DMEEEVEKAAKEYEKKKKEAIEKHLEKLKAKDKEAAERFLKELEEAAKEYAKDEAKTMSEEEAKRRAKKYKEKVLLSELSEEEQKEIKEAEEKLVRTILKYVEEAAK | 0.446 nM
17 | K71G (designed binder) SMEEEVEKAAKEYEKKKKEAIEKHLEKLKAKDKEAAERFLKELEEAAKEYAKDEAKTMSEEEAKRRAKKYGEKVLLSELSEEEQKEIKEAEEKLVRTILKYVEEAAK | 5.31 nM
18 | K17I (designed binder) SMEEEVEKAAKEYEKKIKEAIEKHLEKLKAKDKEAAERFLKELEEAAKEYAKDEAKTMSEEEAKRRAKKYKEKVLLSELSEEEQKEIKEAEEKLVRTILKYVEEAAK | 0.956 nM
19 | Y50N (designed binder) SMEEEVEKAAKEYEKKKKEAIEKHLEKLKAKDKEAAERFLKELEEAAKENAKDEAKTMSEEEAKRRAKKYKEKVLLSELSEEEQKEIKEAEEKLVRTILKYVEEAAK | 1.54 nM
20 | E22G (designed binder) SMEEEVEKAAKEYEKKKKEAIGKHLEKLKAKDKEAAERFLKELEEAAKEYAKDEAKTMSEEEAKRRAKKYKEKVLLSELSEEEQKEIKEAEEKLVRTILKYVEEAAK | 1.05 nM
21 | L43W (designed binder) SMEEEVEKAAKEYEKKKKEAIEKHLEKLKAKDKEAAERFLKEWEEAAKEYAKDEAKTMSEEEAKRRAKKYKEKVLLSELSEEEQKEIKEAEEKLVRTILKYVEEAAK | 2.73 nM
22 | F39Q (designed binder) SMEEEVEKAAKEYEKKKKEAIEKHLEKLKAKDKEAAERQLKELEEAAKEYAKDEAKTMSEEEAKRRAKKYKEKVLLSELSEEEQKEIKEAEEKLVRTILKYVEEAAK | 5.84 nM
23 | K15R (designed binder) SMEEEVEKAAKEYERKKKEAIEKHLEKLKAKDKEAAERFLKELEEAAKEYAKDEAKTMSEEEAKRRAKKYKEKVLLSELSEEEQKEIKEAEEKLVRTILKYVEEAAK | 0.593 nM
24 | K11I (designed binder) SMEEEVEKAAIEYEKKKKEAIEKHLEKLKAKDKEAAERFLKELEEAAKEYAKDEAKTMSEEEAKRRAKKYKEKVLLSELSEEEQKEIKEAEEKLVRTILKYVEEAAK | 0.539 nM
25 | L43I (designed binder) SMEEEVEKAAKEYEKKKKEAIEKHLEKLKAKDKEAAERFLKEIEEAAKEYAKDEAKTMSEEEAKRRAKKYKEKVLLSELSEEEQKEIKEAEEKLVRTILKYVEEAAK | 1.4 nM
26 | E12Q (designed binder) SMEEEVEKAAKQYEKKKKEAIEKHLEKLKAKDKEAAERFLKELEEAAKEYAKDEAKTMSEEEAKRRAKKYKEKVLLSELSEEEQKEIKEAEEKLVRTILKYVEEAAK | 0.956 nM
27 | F39S (designed binder) SMEEEVEKAAKEYEKKKKEAIEKHLEKLKAKDKEAAERSLKELEEAAKEYAKDEAKTMSEEEAKRRAKKYKEKVLLSELSEEEQKEIKEAEEKLVRTILKYVEEAAK | 7.07 nM
28 | A63L (designed binder) SMEEEVEKAAKEYEKKKKEAIEKHLEKLKAKDKEAAERFLKELEEAAKEYAKDEAKTMSEEELKRRAKKYKEKVLLSELSEEEQKEIKEAEEKLVRTILKYVEEAAK | 9.41 nM
29 | E3Q (designed binder) SMQEEVEKAAKEYEKKKKEAIEKHLEKLKAKDKEAAERFLKELEEAAKEYAKDEAKTMSEEEAKRRAKKYKEKVLLSELSEEEQKEIKEAEEKLVRTILKYVEEAAK | 2.25 nM
30 | K71S (designed binder) SMEEEVEKAAKEYEKKKKEAIEKHLEKLKAKDKEAAERFLKELEEAAKEYAKDEAKTMSEEEAKRRAKKYSEKVLLSELSEEEQKEIKEAEEKLVRTILKYVEEAAK | 0.869 nM
31 | D32F (designed binder) SMEEEVEKAAKEYEKKKKEAIEKHLEKLKAKFKEAAERFLKELEEAAKEYAKDEAKTMSEEEAKRRAKKYKEKVLLSELSEEEQKEIKEAEEKLVRTILKYVEEAAK | 6.43 nM
32 | E14V (designed binder) SMEEEVEKAAKEYVKKKKEAIEKHLEKLKAKDKEAAERFLKELEEAAKEYAKDEAKTMSEEEAKRRAKKYKEKVLLSELSEEEQKEIKEAEEKLVRTILKYVEEAAK | 11.4 nM
33 | K29C (designed binder) SMEEEVEKAAKEYEKKKKEAIEKHLEKLCAKDKEAAERFLKELEEAAKEYAKDEAKTMSEEEAKRRAKKYKEKVLLSELSEEEQKEIKEAEEKLVRTILKYVEEAAK | 1.4 nM
34 | D53L (designed binder) SMEEEVEKAAKEYEKKKKEAIEKHLEKLKAKDKEAAERFLKELEEAAKEYAKLEAKTMSEEEAKRRAKKYKEKVLLSELSEEEQKEIKEAEEKLVRTILKYVEEAAK | 13.8 nM
35 | S1M (designed binder) MMEEEVEKAAKEYEKKKKEAIEKHLEKLKAKDKEAAERFLKELEEAAKEYAKDEAKTMSEEEAKRRAKKYKEKVLLSELSEEEQKEIKEAEEKLVRTILKYVEEAAK | 2.25 nM
